Molecular target: MBP-TRIM25-FLAG (human, UniProt Q14258 1-630)
Experiment: pull-down

Sequence of MBP-TRIM25-FLAG (Q14258 whole entry): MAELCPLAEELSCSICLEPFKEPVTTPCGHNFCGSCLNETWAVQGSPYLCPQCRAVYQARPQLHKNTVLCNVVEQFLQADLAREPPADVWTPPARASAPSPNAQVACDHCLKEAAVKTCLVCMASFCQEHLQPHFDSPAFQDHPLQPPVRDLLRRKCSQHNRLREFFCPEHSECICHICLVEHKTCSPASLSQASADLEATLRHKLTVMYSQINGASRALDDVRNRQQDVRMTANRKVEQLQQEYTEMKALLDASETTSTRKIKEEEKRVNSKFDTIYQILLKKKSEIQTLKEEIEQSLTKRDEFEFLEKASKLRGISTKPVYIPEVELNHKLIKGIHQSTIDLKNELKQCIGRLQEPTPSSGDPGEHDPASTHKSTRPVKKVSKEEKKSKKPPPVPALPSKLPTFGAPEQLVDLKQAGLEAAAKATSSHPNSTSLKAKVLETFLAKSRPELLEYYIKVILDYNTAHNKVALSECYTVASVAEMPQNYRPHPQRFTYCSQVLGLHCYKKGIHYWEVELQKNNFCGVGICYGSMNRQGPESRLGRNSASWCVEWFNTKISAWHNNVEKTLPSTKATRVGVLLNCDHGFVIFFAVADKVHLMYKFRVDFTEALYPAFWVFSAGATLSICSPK

B1: GST-PR8 wt NS1 (natural protein)
chain: MDPNTVSSFQVDCFLWHVRKRVADQELGDAPFLDRLRRDQKSLRGRGSTLGLDIETATRAGKQIVERILKEESDEALKMTMASVPASRYLTDMTLEEMSRDWSMLIPKQKVAGPLCIRMDQAIMDKNIILKANFSVIFDRLETLILLRAFTEEGAIVGEISPLPSLPGHTAEDVKNAVGVLIGGLEWNDNTVRVSETLQRFAWRSSNENGRPPLTPKQKREMAGTIRSEV
binding result: binds

— PMC2737813 (Cell host & microbe, 2009)
